Test results taken from article PMC6915727.

Molecular target: human Toll-like receptor 5 (TLR5) in stably transfected HEK293 cells (TLR5+) (human) (UniProt O60602)
Chain of UniProt O60602 (O60602 21-858): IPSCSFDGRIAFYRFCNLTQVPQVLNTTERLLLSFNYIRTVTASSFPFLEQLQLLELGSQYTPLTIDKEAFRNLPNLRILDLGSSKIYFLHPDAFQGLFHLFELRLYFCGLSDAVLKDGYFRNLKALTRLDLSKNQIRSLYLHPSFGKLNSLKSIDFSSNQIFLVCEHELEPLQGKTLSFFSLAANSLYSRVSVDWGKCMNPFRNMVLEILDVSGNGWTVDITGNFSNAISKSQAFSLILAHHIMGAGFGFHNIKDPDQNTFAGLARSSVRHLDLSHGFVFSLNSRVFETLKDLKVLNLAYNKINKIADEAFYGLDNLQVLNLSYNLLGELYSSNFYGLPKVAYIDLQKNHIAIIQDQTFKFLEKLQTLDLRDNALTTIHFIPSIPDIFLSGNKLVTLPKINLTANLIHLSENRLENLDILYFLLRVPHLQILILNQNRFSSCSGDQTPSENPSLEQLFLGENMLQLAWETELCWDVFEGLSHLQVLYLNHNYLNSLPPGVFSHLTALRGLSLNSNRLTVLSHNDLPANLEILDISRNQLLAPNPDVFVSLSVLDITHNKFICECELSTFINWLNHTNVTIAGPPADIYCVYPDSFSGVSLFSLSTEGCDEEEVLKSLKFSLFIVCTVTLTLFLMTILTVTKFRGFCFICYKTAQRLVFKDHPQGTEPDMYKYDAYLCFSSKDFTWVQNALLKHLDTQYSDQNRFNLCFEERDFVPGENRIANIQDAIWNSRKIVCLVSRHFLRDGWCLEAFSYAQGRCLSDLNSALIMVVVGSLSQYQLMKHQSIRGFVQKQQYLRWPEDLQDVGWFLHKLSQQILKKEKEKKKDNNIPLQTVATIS

Substance: recombinant CagL wild type (CagL^WT), C-terminal His-tag fusion (natural protein)
- NF-κB luciferase activity in TLR5+ HEK293 cells, dose-response of recombinant CagL WT (EC50): 173 nM
